Reference: the supplement of paper PMC11246515
± gives the standard deviation of the averaged measurements.

Assay: total protein half-life in vivo (active degradation + dilution); higher = more stable protein
[1] = E. coli NCM3722 delta-clpP delta-lon delta-hslV, growth: N-lim chemostat, doubling time 6 h
[2] = E. coli NCM3722 delta-clpP, growth: N-lim chemostat, doubling time 6 h
[3] = E. coli NCM3722 delta-hslV, growth: N-lim chemostat, doubling time 6 h
[4] = E. coli NCM3722 delta-lon, growth: N-lim chemostat, doubling time 6 h
[5] = E. coli NCM3722 delta-smpB, growth: N-lim chemostat, doubling time 6 h
[6] = wild type E. coli NCM3722, growth: C-lim chemostat, doubling time 3 h
[7] = wild type E. coli NCM3722, growth: C-lim chemostat, doubling time 6 h
[8] = wild type E. coli NCM3722, growth: C-lim chemostat, doubling time 12 h
[9] = wild type E. coli NCM3722, growth: N-lim chemostat, doubling time 6 h
[10] = wild type E. coli NCM3722, growth: N-lim chemostat, doubling time 12 h
[11] = wild type E. coli NCM3722, growth: P-lim chemostat, doubling time 6 h
[12] = wild type E. coli NCM3722, growth: P-lim chemostat, doubling time 12 h

| Sequence | total protein half-life in vivo [1] [h] | total protein half-life in vivo [2] [h] | total protein half-life in vivo [3] [h] | total protein half-life in vivo [4] [h] | total protein half-life in vivo [5] [h] | total protein half-life in vivo [6] [h] | total protein half-life in vivo [7] [h] | total protein half-life in vivo [8] [h] | total protein half-life in vivo [9] [h] | total protein half-life in vivo [10] [h] | total protein half-life in vivo [11] [h] | total protein half-life in vivo [12] [h] |
| --- | --- | --- | --- | --- | --- | --- | --- | --- | --- | --- | --- | --- |
| MSKIFEDNSLTIGHTPLVRLNRIGNGRILAKVESRNPSFSVKCRIGANMIWDAEKRGVLKPGVELVEPTSGNTGIALAYVAAARGYKLTLTMPETMSIERRKLLKALGANLVLTEGAKGMKGAIQKAEEIVASNPEKYLLLQQFSNPANPEIHEKTTGPEIWEDTDGQVDVFIAGVGTGGTLTGVSRYIKGTKGKTDLISVAVEPTDSPVIAQALAGEEIKPGPHKIQGIGAGFIPANLDLKLVDKVIGITNEEAISTARRLMEEEGILAGISSGAAVAAALKLQEDESFTNKNIVVILPSSGERYLSTALFADLFTEKELQQ [P0ABK5] | 5.312 ± 0.029 | 5.14 ± 0.39 | 4.87 ± 0.096 | 5.03 ± 0.31 | 4.53 ± 0.22 | 3.45 ± 0.18 | 6.1 ± 0.7 | 11.8 ± 2.1 | 4.68 ± 0.36 | 8.22 ± 0.3 | 5.72 ± 0.34 | 13.1 ± 1.2 |
| MSKIVKIIGREIIDSRGNPTVEAEVHLEGGFVGMAAAPSGASTGSREALELRDGDKSRFLGKGVTKAVAAVNGPIAQALIGKDAKDQAGIDKIMIDLDGTENKSKFGANAILAVSLANAKAAAAAKGMPLYEHIAELNGTPGKYSMPVPMMNIINGGEHADNNVDIQEFMIQPVGAKTVKEAIRMGSEVFHHLAKVLKAKGMNTAVGDEGGYAPNLGSNAEALAVIAEAVKAAGYELGKDITLAMDCAASEFYKDGKYVLAGEGNKAFTSEEFTHFLEELTKQYPIVSIEDGLDESDWDGFAYQTKVLGDKIQLVGDDLFVTNTKILKEGIEKGIANSILIKFNQIGSLTETLAAIKMAKDAGYTAVISHRSGETEDATIADLAVGTAAGQIKTGSMSRSDRVAKYNQLIRIEEALGEKAPYNGRKEIKGQA [P0A6P9] | 5.56 ± 0.57 | 5.57 ± 0.75 | 4.86 ± 0.065 | 4.95 ± 0.37 | 4.634 ± 0.024 | 3.19 ± 0.15 | 5.95 ± 0.21 | 12.831 ± 0.01 | 5.06 ± 0.19 | 8.35 ± 0.29 | 5.52 ± 0.69 | 11.3 ± 0.84 |
| MSKKIAVIGECMIELSEKGADVKRGFGGDTLNTSVYIARQVDPAALTVHYVTALGTDSFSQQMLDAWHGENVDTSLTQRMENRLPGLYYIETDSTGERTFYYWRNEAAAKFWLESEQSAAICEELANFDYLYLSGISLAILSPTSREKLLSLLRECRANGGKVIFDNNYRPRLWASKEETQQVYQQMLECTDIAFLTLDDEDALWGQQPVEDVIARTHNAGVKEVVVKRGADSCLVSIAGEGLVDVPAVKLPKEKVIDTTAAGDSFSAGYLAVRLTGGSAEDAAKRGHLTASTVIQYRGAIIPREAMPA | 4.86 ± 0.33 | 4.46 ± 0.27 | 4.84 ± 1.2 |  | 4.53 ± 0.19 | 2.44 ± 0.65 | 5.96 ± 0.1 | 11.1 ± 0.28 | 4.64 ± 0.11 | 8.67 ± 1.7 | 5.5 ± 0.33 | 10.6 ± 1.2 |
| MSKLFWAMLSFITRLPVPRRWSQGLDFEHYSRGIITFPLIGLLLGAISGLVFMVLQAWCGAPLAALFSVLVLVLMTGGFHLDGLADTCDGVFSARSRDRMLEIMRDSRLGTHGGLALIFVVLAKILVLSELALRGESILASLAAACAVSRGTAALLMYRHRYAREEGLGNVFIGKIDGRQTCVTLGLAAIFAAVLLPGMHGVAAMVVTMVAIFILGQLLKRTLGGQTGDTLGAAIELGELVFLLALL | 7.472 ± 0.028 | 6.699 ± 0.053 | 6.15 ± 0.36 | 6.52 | > 8 | 3.48 ± 0.11 | 5.85 ± 0.84 | 12.7 ± 1.4 | 5.87 ± 0.4 | 11.3 | 5.6 | 12.4 ± 1.2 |
| MSKLIVPQWPQPKGVAACSSTRIGGVSLPPYDSLNLGAHCGDNPDHVEENRKRLFAAGNLPSKPVWLEQVHGKDVLKLTGEPYASKRADASYSNTPGTVCAVMTADCLPVLFCNRAGTEVAAAHAGWRGLCAGVLEETVSCFADNPENILAWLGPAIGPRAFEVGGEVREAFMAVDAKASAAFIQHGDKYLADIYQLARQRLANVGVEQIFGGDRCTYTENETFFSYRRDKTTGRMASFIWLI | 5.05 ± 0.14 | 4.77 ± 0.76 | 4.885 ± 0.007 | 5.03 ± 0.24 | 4.05 ± 1 | 3.198 ± 0.027 | 5.11 ± 0.72 | 8.61 ± 0.21 | 5.03 ± 0.22 | 9.17 ± 0.77 | 5.644 ± 0.043 | 11.9 ± 0.43 |
| MSKPAITLWSDAHFFSPYVLSAWVALQEKGLSFHIKTIDLDSGEHLQPTWQGYGQTRRVPLLQIDDFELSESSAIAEYLEDRFAPPTWERIYPLDLENRARARQIQAWLRSDLMPIREERPTDVVFAGAKKAPLTAEGKASAEKLFAMAEHLLVLGQPNLFGEWCIADTDLALMINRLVLHGDEVPERLVDYATFQWQRASVQRFIALSAKQSG | 4.94 ± 0.39 | 5.5 ± 1.7 | 4.804 ± 0.025 | 5.18 ± 0.9 | 4.79 ± 0.39 | 2.97 ± 0.081 | 5.9 ± 0.35 | 9.65 ± 1.6 | 4.86 ± 0.41 | 8.65 ± 0.19 | 5.764 ± 0.044 | 12.5 ± 0.95 |
